Laboratory results from patent publication US20090149339A1 (published 2009).
Ends that are not written are not given here. * marks the point of attachment. Biotin = O=C1N[C@H]2[C@H](CS[C@H]2CCCCC(=O)*)N1

B1: CC CKR-1R C-terminal PL peptide AA41L, biotinylated (peptide)
peptide: Biotin-LERVSSTSPSTGEHELSAGF
B2: FasLigand C-terminal PL peptide AA23L-M, biotinylated (peptide)
peptide: Biotin-SSKSKSSEESQTFFGLYKL

biological target: T1, GST-CASK PDZ domain fusion protein (CASK AA495-584; PDZ domain 1 of 1) (mouse, UniProt P08515 1-218 = GST); test: A/G assays
T1 construct: also called mCASK
T1 sequence (P08515 1-218, tags or fused parts left off): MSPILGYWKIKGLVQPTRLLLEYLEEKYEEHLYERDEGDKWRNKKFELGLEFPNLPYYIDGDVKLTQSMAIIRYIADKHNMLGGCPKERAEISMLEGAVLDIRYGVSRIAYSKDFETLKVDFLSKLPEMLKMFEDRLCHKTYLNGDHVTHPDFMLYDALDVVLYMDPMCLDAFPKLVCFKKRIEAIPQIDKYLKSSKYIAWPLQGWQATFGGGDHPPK

Row | Binder | binding result
1 | B1 | no binding
2 | B2 | no binding

biological target: GST-LIM PDZ domain fusion protein (Human LIM protein AA29-112; PDZ domain 1 of 1) (human, UniProt P08515 1-218 = GST); test: A/G assays
Sequence (P08515 1-218, tags or fused parts left off): as above

Row | Binder | binding result
3 | B1 | no binding
4 | B2 | no binding

biological target: GST-LIMK2 PDZ domain fusion protein (human LIM domain kinase 2 AA185-275; PDZ domain 1 of 1) (human, UniProt P08515 1-218 = GST); test: A/G assays
Sequence (P08515 1-218, tags or fused parts left off): as above

Row | Binder | binding result
5 | B1 | no binding
6 | B2 | no binding

biological target: T2, GST-MPP2 PDZ domain fusion protein (maguk p55 subfamily member 2 (DLG2) AA185-273; PDZ domain 1 of 1) (UniProt P08515 1-218 = GST); test: A/G assays
T2 construct: also called MMP2
T2 sequence (P08515 1-218, tags or fused parts left off): as above

Row | Binder | binding result
7 | B1 | no binding
8 | B2 | no binding

biological target: GST-NOS1 PDZ domain fusion protein (human neuronal nitric oxide synthase; PDZ domain 1 of 1) (human, UniProt P08515 1-218 = GST); test: A/G assays

Row | Binder | binding result
9 | B1 | no binding
10 | B2 | no binding

biological target: GST-AF6 PDZ domain fusion protein (af-6 protein AA985-1077; PDZ domain 1 of 1) (UniProt P08515 1-218 = GST); test: A/G assays
Sequence (P08515 1-218, tags or fused parts left off): as above

Row | Binder | binding result
11 | B1 | no binding
12 | B2 | no binding

biological target: GST-PTN-4 PDZ domain fusion protein (protein-tyrosine phosphatase meg1 AA774-862; PDZ domain 1 of 1) (UniProt P08515 1-218 = GST); test: A/G assays

Row | Binder | binding result
13 | B1 | no binding
14 | B2 | no binding

biological target: GST-prIL16 PDZ domain fusion protein (putative interleukin 16 precursor AA170-383; PDZ domains 1-2 of 2) (UniProt P08515 1-218 = GST); test: A/G assays
Sequence (P08515 1-218, tags or fused parts left off): as above

Row | Binder | binding result
15 | B1 | no binding
16 | B2 | no binding

biological target: T3, GST-41.8 kD PDZ domain fusion protein (hypothetical 41.8 kD protein AA4-85; PDZ domain 1 of 1) (UniProt P08515 1-218 = GST); test: A/G assays
T3 construct: also called hypoth
T3 sequence (P08515 1-218, tags or fused parts left off): as above

Row | Binder | binding result
17 | B1 | no binding
18 | B2 | no binding

biological target: T4, GST-KIAA0559 PDZ domain fusion protein (KIAA0559 AA766-870; PDZ1 of 1) (UniProt P08515 1-218 = GST); test: A/G assays
T4 construct: also called K559
T4 sequence (P08515 1-218, tags or fused parts left off): as above

Row | Binder | binding result
19 | B1 | no binding
20 | B2 | no binding

biological target: GST-MPP1 PDZ domain fusion protein (55 Kd erythrocyte membrane protein AA101-186; PDZ domain 1 of 1) (UniProt P08515 1-218 = GST); test: A/G assays
Sequence (P08515 1-218, tags or fused parts left off): as above

Row | Binder | binding result
21 | B1 | no binding
22 | B2 | no binding

biological target: T5, GST-RGS12 PDZ domain fusion protein (human regulator of G-protein signalling 12 AA35-103; PDZ domain 1 of 1) (human, UniProt P08515 1-218 = GST); test: A/G assays
T5 construct: also called RSG12
T5 sequence (P08515 1-218, tags or fused parts left off): as above

Row | Binder | binding result
23 | B1 | no binding
24 | B2 | no binding

biological target: T6, GST-KIAA0316 PDZ domain fusion protein (KIAA0316 AA197-284; PDZ domain 1 of 1) (UniProt P08515 1-218 = GST); test: A/G assays
T6 construct: also called K316
T6 sequence (P08515 1-218, tags or fused parts left off): as above

Row | Binder | binding result
25 | B1 | no binding
26 | B2 | no binding

biological target: GST-DVL1 PDZ domain fusion protein (human dishevelled segment polarity protein homolog AA248-340); PDZ domain … (human, UniProt P08515 1-218 = GST); test: A/G assays
Sequence (P08515 1-218, tags or fused parts left off): as above

Row | Binder | binding result
27 | B1 | no binding
28 | B2 | no binding

biological target: T7, GST-TAX40 PDZ domain fusion protein (human tax interaction protein 40 AA35-137; PDZ domain 1 of 1) (human, UniProt P08515 1-218 = GST); test: A/G assays
T7 construct: also called TX 40
T7 sequence (P08515 1-218, tags or fused parts left off): as above

Row | Binder | binding result
29 | B1 | no binding
30 | B2 | no binding

biological target: GST-TIAM1 PDZ domain fusion protein (T-lymphoma invasion and metastasis inducing protein 1 AA1001-1088); PDZ 1 … (UniProt P08515 1-218 = GST); test: A/G assays
Sequence (P08515 1-218, tags or fused parts left off): as above

Row | Binder | binding result
31 | B1 | no binding
32 | B2 | no binding

biological target: T8, GST-KIAA0303 PDZ domain fusion protein (KIAA0303 AA652-742; PDZ domain 1 of 1) (UniProt P08515 1-218 = GST); test: A/G assays
T8 construct: also called K303
T8 sequence (P08515 1-218, tags or fused parts left off): as above

Row | Binder | binding result
33 | B1 | no binding
34 | B2 | no binding

biological target: T9, GST-CBP PDZ domain fusion protein (Cytohesin binding protein HE AA85-175; PDZ domain 1 of 1) (UniProt P08515 1-218 = GST); test: A/G assays
T9 construct: also called Prot
T9 sequence (P08515 1-218, tags or fused parts left off): as above

Row | Binder | binding result
35 | B1 | no binding
36 | B2 | no binding

biological target: GST-MINT3 PDZ domain fusion protein (human MINT3 AA11-52; PDZ domain 1 of 1) (human, UniProt P08515 1-218 = GST); test: A/G assays
Sequence (P08515 1-218, tags or fused parts left off): as above

Row | Binder | binding result
37 | B1 | no binding
38 | B2 | no binding

biological target: T10, GST-TAX2 PDZ domain fusion protein (human tax interaction protein 2 AA54-140; PDZ domain 1 of 1) (human, UniProt P08515 1-218 = GST); test: A/G assays
T10 construct: also called TX 2
T10 sequence (P08515 1-218, tags or fused parts left off): as above

Row | Binder | binding result
39 | B1 | no binding
40 | B2 | no binding

biological target: GST-PSD95 PDZ domain fusion protein (human post-synaptic density protein 95 AA387-724; PDZ domains 1-3 of 3) (human, UniProt P08515 1-218 = GST); test: A/G assays
Sequence (P08515 1-218, tags or fused parts left off): as above

Row | Binder | binding result
41 | B1 | no binding
42 | B2 | no binding

biological target: T11, GST-NeDLG PDZ domain fusion protein (presynaptic protein sao102, neuroendocrine-dlg; PDZ domains 1-2 of 3) (UniProt P08515 1-218 = GST); test: A/G assays
T11 construct: also called NeDLG1

Row | Binder | binding result
43 | B1 | no binding
44 | B2 | no binding

biological target: T12, GST-TAX33 PDZ domain fusion protein (tax interaction protein 33 AA73-162; PDZ domain 1 of 1) (UniProt P08515 1-218 = GST); test: A/G assays
T12 construct: also called TX33

Row | Binder | binding result
45 | B1 | no binding
46 | B2 | no binding

biological target: T13, GST-SYN1a PDZ domain fusion protein (alpha1-syntrophin AA96-189; PDZ domain 1 of 1) (UniProt P08515 1-218 = GST); test: A/G assays
T13 construct: also called SYN 1 alpha; SYNTR 1 alpha
T13 sequence (P08515 1-218, tags or fused parts left off): as above

Row | Binder | binding result
47 | B1 | no binding
48 | B2 | no binding

biological target: T14, GST-TAX43 PDZ domain fusion protein (human tax interaction protein 43 AA15-85; PDZ domain 1 of 1) (human, UniProt P08515 1-218 = GST); test: A/G assays
T14 construct: also called TX 43
T14 sequence (P08515 1-218, tags or fused parts left off): as above

Row | Binder | binding result
49 | B1 | no binding
50 | B2 | no binding
